Experiments:
[1] = molecular target: Human myeloma IgE (human) (UniProt P01854); assay: SPR (BIAcore 2000, 25 C): GST-EndoS (E235Q) amine-coupled to a CM5 chip, human myeloma IgE injected at 10-1.25 ug/ml; 1:1 Langmuir fit, KD from mean rate constants
[2] = molecular target: Human IgE in whole blood of healthy volunteers (on basophils); assay: cell-based or functional assay

| Substance | Kd [1] | CD203c+ cells among CD123+, HLA-DR- basophils after chicken anti-IgE stimulation of whole blood (FACS); untreated blood 83% [2] |
| --- | --- | --- |
| GST-EndoS (E235Q), enzymatically inactive form of EndoS from Streptococcus pyogenes (from UniProt Q99Y92 37-995) (enzyme) | 133 nM | – |
| GST-EndoS (enzymatically active) (from UniProt Q99Y92 37-995) (enzyme) | – | 15% |

From patent US20140065128A1
